Measured values published in publication PMC7327521 (Journal of Molecular Biology, 2020).
Square brackets hold non-standard residues; d marks the D form. Ends that are not written are not given here. pY = N[C@@H](Cc1ccc(OP(=O)(O)O)cc1)C(=O)O

Experiments:
Experiment in all cases: fluorescence polarisation
Spt6-tSH2 K1354E = molecular target: T1, Spt6-tSH2 K1354E (C. glabrata, UniProt Q6FLB1 1250-1444, K1354E)
T1 sequence (looked up): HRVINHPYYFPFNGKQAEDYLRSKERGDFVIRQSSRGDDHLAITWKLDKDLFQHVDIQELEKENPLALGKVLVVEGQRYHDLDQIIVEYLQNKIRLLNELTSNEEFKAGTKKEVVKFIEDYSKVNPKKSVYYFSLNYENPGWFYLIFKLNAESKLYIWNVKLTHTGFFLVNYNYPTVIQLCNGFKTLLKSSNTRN

Spt6-tSH2 R1281A/S1283A = molecular target: T2, Spt6-tSH2 R1281A/S1283A (C. glabrata, UniProt Q6FLB1 1250-1444, R1281A | S1283A)
T2 sequence (looked up): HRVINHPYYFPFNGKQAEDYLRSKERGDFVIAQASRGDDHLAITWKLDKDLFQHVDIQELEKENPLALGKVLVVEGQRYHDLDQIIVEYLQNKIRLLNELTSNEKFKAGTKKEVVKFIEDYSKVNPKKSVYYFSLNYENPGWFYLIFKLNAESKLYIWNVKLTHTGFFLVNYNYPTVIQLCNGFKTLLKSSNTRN

[1] = molecular target: T3, Spt6-tSH2 R1281A/S1283A/R1285A (C. glabrata, UniProt Q6FLB1 1250-1444, R1281A | S1283A | R1285A)
T3 sequence (looked up): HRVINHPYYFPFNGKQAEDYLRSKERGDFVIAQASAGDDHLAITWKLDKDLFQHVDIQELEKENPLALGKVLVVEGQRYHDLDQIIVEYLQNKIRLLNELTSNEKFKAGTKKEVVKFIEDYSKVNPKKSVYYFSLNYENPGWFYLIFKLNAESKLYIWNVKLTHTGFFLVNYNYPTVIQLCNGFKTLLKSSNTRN

[2] = molecular target: T4, N-terminal SH2 domain of C. glabrata Spt6 (Spt6-N-SH2) (C. glabrata, UniProt Q6FLB1 1250-1354)
T4 sequence (looked up): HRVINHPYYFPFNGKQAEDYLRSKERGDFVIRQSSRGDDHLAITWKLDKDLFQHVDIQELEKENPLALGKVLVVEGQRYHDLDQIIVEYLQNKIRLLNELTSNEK

Spt6-tSH2 R1281A = molecular target: T5, Spt6-tSH2 R1281A (C. glabrata, UniProt Q6FLB1 1250-1444, R1281A)
T5 sequence (looked up): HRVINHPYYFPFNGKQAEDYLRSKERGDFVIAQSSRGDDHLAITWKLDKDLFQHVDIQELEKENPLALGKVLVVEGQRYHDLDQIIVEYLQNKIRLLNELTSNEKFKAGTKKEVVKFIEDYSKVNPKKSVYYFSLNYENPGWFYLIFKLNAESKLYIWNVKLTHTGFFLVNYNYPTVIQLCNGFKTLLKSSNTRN

Spt6-tSH2 S1283A = molecular target: T6, Spt6-tSH2 S1283A (C. glabrata, UniProt Q6FLB1 1250-1444, S1283A)
T6 sequence (looked up): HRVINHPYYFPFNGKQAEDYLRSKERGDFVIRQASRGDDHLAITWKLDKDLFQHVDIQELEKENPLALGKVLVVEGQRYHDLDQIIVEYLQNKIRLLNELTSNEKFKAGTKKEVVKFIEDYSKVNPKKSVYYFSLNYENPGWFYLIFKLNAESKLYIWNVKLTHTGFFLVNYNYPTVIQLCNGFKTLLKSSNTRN

Spt6-tSH2 S1284A = molecular target: T7, Spt6-tSH2 S1284A (C. glabrata, UniProt Q6FLB1 1250-1444, S1284A)
T7 sequence (looked up): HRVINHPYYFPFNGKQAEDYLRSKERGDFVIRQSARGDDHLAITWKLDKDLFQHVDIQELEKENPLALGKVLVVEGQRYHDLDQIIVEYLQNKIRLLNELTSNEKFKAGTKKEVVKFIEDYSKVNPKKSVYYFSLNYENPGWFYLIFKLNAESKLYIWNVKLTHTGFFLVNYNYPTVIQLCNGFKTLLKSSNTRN

Spt6-tSH2 R1285A = molecular target: T8, Spt6-tSH2 R1285A (C. glabrata, UniProt Q6FLB1 1250-1444, R1285A)
T8 sequence (looked up): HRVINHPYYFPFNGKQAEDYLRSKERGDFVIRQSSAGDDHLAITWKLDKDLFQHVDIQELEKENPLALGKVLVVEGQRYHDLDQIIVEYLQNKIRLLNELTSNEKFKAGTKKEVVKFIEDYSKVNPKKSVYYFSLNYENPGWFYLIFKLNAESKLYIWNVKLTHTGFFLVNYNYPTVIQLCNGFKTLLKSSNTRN

Spt6-tSH2 E1324A = molecular target: T9, Spt6-tSH2 E1324A (C. glabrata, UniProt Q6FLB1 1250-1444, E1324A)
T9 sequence (looked up): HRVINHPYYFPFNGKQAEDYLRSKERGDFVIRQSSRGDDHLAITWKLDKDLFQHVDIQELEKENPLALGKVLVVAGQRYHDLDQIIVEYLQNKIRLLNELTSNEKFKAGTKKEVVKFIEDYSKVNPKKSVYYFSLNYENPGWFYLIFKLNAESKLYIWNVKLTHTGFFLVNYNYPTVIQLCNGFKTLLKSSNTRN

B1: (pY1-CTD)2, FAM-labelled tyrosine-phosphorylated CTD diheptad (peptide)
peptide: {5,6‑FAM}-PS[pY]SPTSPS[pY]SPTSPS
Spt6-tSH2 K1354E
  Kd: 16.3 µM
Spt6-tSH2 R1281A/S1283A
  Kd: 35.5 µM
[1]
  Kd: 16.5 µM
[2]
  Kd: 313 µM
Spt6-tSH2 R1281A
  Kd: 17.6 µM
Spt6-tSH2 S1283A
  Kd: 5.4 µM
Spt6-tSH2 S1284A
  Kd: 8.2 µM
Spt6-tSH2 R1285A
  Kd: 12 µM
Spt6-tSH2 E1324A
  Kd: 1.4 µM
